± gives the standard deviation of the averaged measurements.
B1: library; a variant is named by its letters at N, in order (parent)
chain: GCUGUCACCGAGAAACUGUGAAGUAUAUCUUAAACCUGGGCACUUAAAAGAUAUAUGGAGUUAGUAGUGCAACCUGCUCGGUCUGAUGAGUCCNNNNNNGGACGAAACAGC

Assays:
cyclic di-GMP [1] = variants of: B1; test: normalized RNA/DNA level without ligand (relative to sTRSVctl = 100) (log10 (% of sTRSVctl)); HEK293T; ligand: cyclic di-GMP (c-di-GMP-II aptamer); higher = less ribozyme self-cleavage, higher mRNA level; details: reporter: mCherry (pCS4076), ligand present: no
In short: (§1)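 HEK293T cells were transfected with library plasmids carrying ribozyme switches linked to an mCherry reporter, or an eGFP reporter in some ligand experiments, at 4 µg per well of a 6-well plate, with any ligand added 1 h beforehand. After 72 h, total RNA was extracted with EDTA, reverse-transcribed, amplified, barcoded and sequenced. RNA level was defined as RNA reads over DNA reads, normalized to a spiked-in non-cleaving sequence or to the top-ranked sequences. That value was multiplied by 100 and converted to log10, the top set was 25 sequences, and only sequences with ≥100 DNA reads were retained.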

cyclic di-GMP [2] = variants of: B1; test: normalized RNA/DNA level with ligand (relative to sTRSVctl = 100) (log10 (% of sTRSVctl)); HEK293T; ligand: cyclic di-GMP (c-di-GMP-II aptamer); ligand concentration (+) RNA-Seq: 1 mM; higher = less ribozyme self-cleavage, higher mRNA level; details: reporter: mCherry (pCS4076), ligand present: yes
In short: as §1

Row | Variant | normalized RNA/DNA level without ligand (log10) (cyclic di-GMP [1]) | normalized RNA/DNA level with ligand (log10) (cyclic di-GMP [2])
1 | GCUGUCACCGAGAAACUGUGAAGUAUAUCUUAAACCUGGGCACUUAAAAGAUAUAUGGAGUUAGUAGUGCAACCUGCUCGGUCUGAUGAGUCCACGCCUGGACGAAACAGC [ACGCCU] | 1.64 ± 0.099 | 1.8 ± 0.036
2 | GCUGUCACCGAGAAACUGUGAAGUAUAUCUUAAACCUGGGCACUUAAAAGAUAUAUGGAGUUAGUAGUGCAACCUGCUCGGUCUGAUGAGUCCCCGCCUGGACGAAACAGC [CCGCCU] | 1.7 ± 0.0065 | 1.84 ± 0.099
3 | GCUGUCACCGAGAAACUGUGAAGUAUAUCUUAAACCUGGGCACUUAAAAGAUAUAUGGAGUUAGUAGUGCAACCUGCUCGGUCUGAUGAGUCCCCGCUGGGACGAAACAGC [CCGCUG] | 1.28 ± 0.15 | 1.56 ± 0.12
4 | GCUGUCACCGAGAAACUGUGAAGUAUAUCUUAAACCUGGGCACUUAAAAGAUAUAUGGAGUUAGUAGUGCAACCUGCUCGGUCUGAUGAGUCCCCGCUAGGACGAAACAGC [CCGCUA] | 1.43 ± 0.078 | 1.68 ± 0.091
5 | GCUGUCACCGAGAAACUGUGAAGUAUAUCUUAAACCUGGGCACUUAAAAGAUAUAUGGAGUUAGUAGUGCAACCUGCUCGGUCUGAUGAGUCCCCGCUCGGACGAAACAGC [CCGCUC] | 1.66 ± 0.029 | 1.85 ± 0.094
6 | GCUGUCACCGAGAAACUGUGAAGUAUAUCUUAAACCUGGGCACUUAAAAGAUAUAUGGAGUUAGUAGUGCAACCUGCUCGGUCUGAUGAGUCCACGCGAGGACGAAACAGC [ACGCGA] | 1.4 ± 0.11 | 1.62 ± 0.11
7 | GCUGUCACCGAGAAACUGUGAAGUAUAUCUUAAACCUGGGCACUUAAAAGAUAUAUGGAGUUAGUAGUGCAACCUGCUCGGUCUGAUGAGUCCACGCGUGGACGAAACAGC [ACGCGU] | 1.504 ± 0.0098 | 1.71 ± 0.14
8 | GCUGUCACCGAGAAACUGUGAAGUAUAUCUUAAACCUGGGCACUUAAAAGAUAUAUGGAGUUAGUAGUGCAACCUGCUCGGUCUGAUGAGUCCACGCGCGGACGAAACAGC [ACGCGC] | 1.629 ± 0.016 | 1.79 ± 0.11
9 | GCUGUCACCGAGAAACUGUGAAGUAUAUCUUAAACCUGGGCACUUAAAAGAUAUAUGGAGUUAGUAGUGCAACCUGCUCGGUCUGAUGAGUCCUCGCGUGGACGAAACAGC [UCGCGU] | 1.66 ± 0.083 | 1.84 ± 0.089
10 | GCUGUCACCGAGAAACUGUGAAGUAUAUCUUAAACCUGGGCACUUAAAAGAUAUAUGGAGUUAGUAGUGCAACCUGCUCGGUCUGAUGAGUCCUCGCGGGGACGAAACAGC [UCGCGG] | 1.78 ± 0.051 | 1.85 ± 0.14
11 | GCUGUCACCGAGAAACUGUGAAGUAUAUCUUAAACCUGGGCACUUAAAAGAUAUAUGGAGUUAGUAGUGCAACCUGCUCGGUCUGAUGAGUCCUCGCGCGGACGAAACAGC [UCGCGC] | 1.73 ± 0.029 | 1.89 ± 0.093
12 | GCUGUCACCGAGAAACUGUGAAGUAUAUCUUAAACCUGGGCACUUAAAAGAUAUAUGGAGUUAGUAGUGCAACCUGCUCGGUCUGAUGAGUCCACGCUGGGACGAAACAGC [ACGCUG] | 1.62 ± 0.039 | 1.79 ± 0.089
13 | GCUGUCACCGAGAAACUGUGAAGUAUAUCUUAAACCUGGGCACUUAAAAGAUAUAUGGAGUUAGUAGUGCAACCUGCUCGGUCUGAUGAGUCCACGCUAGGACGAAACAGC [ACGCUA] | 1.53 ± 0.026 | 1.72 ± 0.13
14 | GCUGUCACCGAGAAACUGUGAAGUAUAUCUUAAACCUGGGCACUUAAAAGAUAUAUGGAGUUAGUAGUGCAACCUGCUCGGUCUGAUGAGUCCUCGCUAGGACGAAACAGC [UCGCUA] | 1.46 ± 0.026 | 1.7 ± 0.047
15 | GCUGUCACCGAGAAACUGUGAAGUAUAUCUUAAACCUGGGCACUUAAAAGAUAUAUGGAGUUAGUAGUGCAACCUGCUCGGUCUGAUGAGUCCUCGCUGGGACGAAACAGC [UCGCUG] | 1.69 ± 0.0043 | 1.84 ± 0.082
16 | GCUGUCACCGAGAAACUGUGAAGUAUAUCUUAAACCUGGGCACUUAAAAGAUAUAUGGAGUUAGUAGUGCAACCUGCUCGGUCUGAUGAGUCCUCGCUCGGACGAAACAGC [UCGCUC] | 1.742 ± 0.011 | 1.87 ± 0.14
17 | GCUGUCACCGAGAAACUGUGAAGUAUAUCUUAAACCUGGGCACUUAAAAGAUAUAUGGAGUUAGUAGUGCAACCUGCUCGGUCUGAUGAGUCCGCGCGUGGACGAAACAGC [GCGCGU] | 1.59 ± 0.1 | 1.75 ± 0.044
18 | GCUGUCACCGAGAAACUGUGAAGUAUAUCUUAAACCUGGGCACUUAAAAGAUAUAUGGAGUUAGUAGUGCAACCUGCUCGGUCUGAUGAGUCCGCGCGGGGACGAAACAGC [GCGCGG] | 1.796 ± 0.0029 | 1.87 ± 0.087
19 | GCUGUCACCGAGAAACUGUGAAGUAUAUCUUAAACCUGGGCACUUAAAAGAUAUAUGGAGUUAGUAGUGCAACCUGCUCGGUCUGAUGAGUCCGCGCGCGGACGAAACAGC [GCGCGC] | 1.64 ± 0.07 | 1.8 ± 0.11
20 | GCUGUCACCGAGAAACUGUGAAGUAUAUCUUAAACCUGGGCACUUAAAAGAUAUAUGGAGUUAGUAGUGCAACCUGCUCGGUCUGAUGAGUCCGCGCUGGGACGAAACAGC [GCGCUG] | 1.77 ± 0.049 | 1.84 ± 0.14
21 | GCUGUCACCGAGAAACUGUGAAGUAUAUCUUAAACCUGGGCACUUAAAAGAUAUAUGGAGUUAGUAGUGCAACCUGCUCGGUCUGAUGAGUCCGCGCCUGGACGAAACAGC [GCGCCU] | 1.774 ± 0.0061 | 1.88 ± 0.083
22 | GCUGUCACCGAGAAACUGUGAAGUAUAUCUUAAACCUGGGCACUUAAAAGAUAUAUGGAGUUAGUAGUGCAACCUGCUCGGUCUGAUGAGUCCCCGCGAGGACGAAACAGC [CCGCGA] | 1.59 ± 0.053 | 1.76 ± 0.07
23 | GCUGUCACCGAGAAACUGUGAAGUAUAUCUUAAACCUGGGCACUUAAAAGAUAUAUGGAGUUAGUAGUGCAACCUGCUCGGUCUGAUGAGUCCCCGCGCGGACGAAACAGC [CCGCGC] | 1.74 ± 0.026 | 1.87 ± 0.098
24 | GCUGUCACCGAGAAACUGUGAAGUAUAUCUUAAACCUGGGCACUUAAAAGAUAUAUGGAGUUAGUAGUGCAACCUGCUCGGUCUGAUGAGUCCCCGCGGGGACGAAACAGC [CCGCGG] | 1.73 ± 0.044 | 1.85 ± 0.056
25 | GCUGUCACCGAGAAACUGUGAAGUAUAUCUUAAACCUGGGCACUUAAAAGAUAUAUGGAGUUAGUAGUGCAACCUGCUCGGUCUGAUGAGUCCCCGCGUGGACGAAACAGC [CCGCGU] | 1.69 ± 0.02 | 1.84 ± 0.17
26 | GCUGUCACCGAGAAACUGUGAAGUAUAUCUUAAACCUGGGCACUUAAAAGAUAUAUGGAGUUAGUAGUGCAACCUGCUCGGUCUGAUGAGUCCUCGCCUGGACGAAACAGC [UCGCCU] | 1.76 ± 0.029 | 1.92 ± 0.12

Reference: the supplement of paper PMC6757056
